The chains are these.
T1: TNFR1 on THP-1 Lucia NF-κB cells (UniProt P19438 30-455, limits assumed)
T1 sequence (looked up): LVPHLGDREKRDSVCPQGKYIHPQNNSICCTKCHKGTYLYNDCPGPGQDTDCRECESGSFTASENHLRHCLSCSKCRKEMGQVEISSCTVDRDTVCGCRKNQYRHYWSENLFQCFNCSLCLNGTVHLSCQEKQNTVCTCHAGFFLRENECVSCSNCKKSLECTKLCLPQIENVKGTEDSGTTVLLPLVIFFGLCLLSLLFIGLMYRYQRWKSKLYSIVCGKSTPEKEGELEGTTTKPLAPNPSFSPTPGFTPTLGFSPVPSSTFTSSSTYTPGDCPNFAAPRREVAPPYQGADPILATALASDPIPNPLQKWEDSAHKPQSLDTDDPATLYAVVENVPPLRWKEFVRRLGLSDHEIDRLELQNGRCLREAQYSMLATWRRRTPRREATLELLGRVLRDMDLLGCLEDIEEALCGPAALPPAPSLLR

B1: SEQ ID NO. 178 (peptide)
peptide: cyclo([bhcLeu][Nle][4Pal][Pip(4-aza)]W[NMeE]N[4Pal][Trp(7-Cl)][αMeS][Phe(4-COOH)]H[Sar][Trp(βS-Me,7-OMe)])
SMILES: CCCC[C@@H]1NC(=O)[C@@H]2CC[C@@H](C2)NC(=O)[C@H]([C@@H](C)c2c[nH]c3c(OC)cccc23)NC(=O)CN(C)C(=O)[C@H](Cc2c[nH]cn2)NC(=O)[C@H](Cc2ccc(C(=O)O)cc2)NC(=O)[C@](C)(CO)NC(=O)[C@H](Cc2c[nH]c3c(Cl)cccc23)NC(=O)[C@H](Cc2ccncc2)NC(=O)[C@H](CC(N)=O)NC(=O)[C@H](CCC(=O)O)N(C)C(=O)[C@H](Cc2c[nH]c3ccccc23)NC(=O)[C@@H]2CNCCN2C(=O)[C@H](Cc2ccncc2)NC1=O
B2: SEQ ID NO. 166 (peptide)
peptide: cyclo([bhcLeu][FX1][4Pal][NMeS]W[NMeE]N[4Pal][Trp(7-Cl)][αMeS][Phe(4-COOH)]Y[Sar][Trp(βS-Me,7-OMe)])
SMILES: COc1cccc2c([C@H](C)[C@@H]3NC(=O)CN(C)C(=O)[C@H](Cc4ccc(O)cc4)NC(=O)[C@H](Cc4ccc(C(=O)O)cc4)NC(=O)[C@](C)(CO)NC(=O)[C@H](Cc4c[nH]c5c(Cl)cccc45)NC(=O)[C@H](Cc4ccncc4)NC(=O)[C@H](CC(N)=O)NC(=O)[C@H](CCC(=O)O)N(C)C(=O)[C@H](Cc4c[nH]c5ccccc45)NC(=O)[C@H](CO)N(C)C(=O)[C@H](Cc4ccncc4)NC(=O)[C@H](CCC(=O)Nc4cccnc4)NC(=O)[C@@H]4CC[C@@H](C4)NC3=O)c[nH]c12
B3: SEQ ID NO. 181 (peptide)
peptide: cyclo([bhcLeu][Nle][4Pal][Pip(4-aza)]W[NMeE][hSOMe][4Pal][Trp(7-Cl)][αMeS][Phe(4-COOH)]Y[Sar][Trp(βS-Me,7-OMe)])
SMILES: CCCC[C@@H]1NC(=O)[C@@H]2CC[C@@H](C2)NC(=O)[C@H]([C@@H](C)c2c[nH]c3c(OC)cccc23)NC(=O)CN(C)C(=O)[C@H](Cc2ccc(O)cc2)NC(=O)[C@H](Cc2ccc(C(=O)O)cc2)NC(=O)[C@](C)(CO)NC(=O)[C@H](Cc2c[nH]c3c(Cl)cccc23)NC(=O)[C@H](Cc2ccncc2)NC(=O)[C@H](CCOC)NC(=O)[C@H](CCC(=O)O)N(C)C(=O)[C@H](Cc2c[nH]c3ccccc23)NC(=O)[C@@H]2CNCCN2C(=O)[C@H](Cc2ccncc2)NC1=O
B4: SEQ ID NO. 167 (peptide)
peptide: {CH2CO}-[Nle][4Pal][Pip(4-aza)]W[dPro4cPr]N[4Pal][Trp(7-Cl)][αMeS][Phe(4-COOH)]Y[Sar][Trp(βS-Me,7-OMe)]C-NH2
modifications: thioether N-14
SMILES: CCCC[C@@H]1NC(=O)CSC[C@@H](C(N)=O)NC(=O)[C@H]([C@@H](C)c2c[nH]c3c(OC)cccc23)NC(=O)CN(C)C(=O)[C@H](Cc2ccc(O)cc2)NC(=O)[C@H](Cc2ccc(C(=O)O)cc2)NC(=O)[C@](C)(CO)NC(=O)[C@H](Cc2c[nH]c3c(Cl)cccc23)NC(=O)[C@H](Cc2ccncc2)NC(=O)[C@H](CC(N)=O)NC(=O)[C@H]2CC3(CC3)CN2C(=O)[C@H](Cc2c[nH]c3ccccc23)NC(=O)[C@@H]2CNCCN2C(=O)[C@H](Cc2ccncc2)NC1=O
B5: SEQ ID NO. 185 (peptide)
peptide: {CH2CO}-[Nle][4Pal][Pip(5R-OH)]W[dHyp]N[Phe(4-COOH)][Trp(7-Cl)][αMeS][Phe(4-CONH2)]Y[Sar][Trp(βS-Me,7-OMe)]C-NH2
modifications: thioether N-14
SMILES: CCCC[C@@H]1NC(=O)CSC[C@@H](C(N)=O)NC(=O)[C@H]([C@@H](C)c2c[nH]c3c(OC)cccc23)NC(=O)CN(C)C(=O)[C@H](Cc2ccc(O)cc2)NC(=O)[C@H](Cc2ccc(C(N)=O)cc2)NC(=O)[C@](C)(CO)NC(=O)[C@H](Cc2c[nH]c3c(Cl)cccc23)NC(=O)[C@H](Cc2ccc(C(=O)O)cc2)NC(=O)[C@H](CC(N)=O)NC(=O)[C@H]2C[C@H](O)CN2C(=O)[C@H](Cc2c[nH]c3ccccc23)NC(=O)[C@@H]2CC[C@@H](O)CN2C(=O)[C@H](Cc2ccncc2)NC1=O
B6: SEQ ID NO. 158 (peptide)
peptide: {CH2CO}-[Nle][4Pal][Pip2c][Trp(7-aza)][NMeE]N[4Pal][Trp(7-Cl)][αMeS][Phe(4-COOH)][TyrOCF3][Sar][Trp(βS-Me,7-OMe)]C-NH2
modifications: thioether N-14; reading uncertain; also: printed as cyclo(ClAc-Nle-4Pal-Pip2c-Trp7az-NMeE-N-4Pal-Trp7Cl-aMeS-Phe4COOH-TyrOCF3-Sar-SbMeW7OMe-C)-NH2
B7: SEQ ID NO. 171 (peptide)
peptide: cyclo([bhcLeu][Nle][4Pal][Pip(4-aza)]W[NMeE]N[Phe(4-CH2SO3H)][Trp(7-Cl)][αMeS][Phe(4-COOH)]Y[Sar][Trp(βS-Me,7-OMe)])
SMILES: CCCC[C@@H]1NC(=O)[C@@H]2CC[C@@H](C2)NC(=O)[C@H]([C@@H](C)c2c[nH]c3c(OC)cccc23)NC(=O)CN(C)C(=O)[C@H](Cc2ccc(O)cc2)NC(=O)[C@H](Cc2ccc(C(=O)O)cc2)NC(=O)[C@](C)(CO)NC(=O)[C@H](Cc2c[nH]c3c(Cl)cccc23)NC(=O)[C@H](Cc2ccc(CS(=O)(=O)O)cc2)NC(=O)[C@H](CC(N)=O)NC(=O)[C@H](CCC(=O)O)N(C)C(=O)[C@H](Cc2c[nH]c3ccccc23)NC(=O)[C@@H]2CNCCN2C(=O)[C@H](Cc2ccncc2)NC1=O
B8: SEQ ID NO. 145 (peptide)
peptide: cyclo([bhcLeu][Nle][4Pal][Pip(5R-OH)]W[NMeE]N[AEF][Trp(7-Cl)][αMeS][Phe(4-CONH2)]Y[Sar][Trp(βS-Me,7-OMe)])
SMILES: CCCC[C@@H]1NC(=O)[C@@H]2CC[C@@H](C2)NC(=O)[C@H]([C@@H](C)c2c[nH]c3c(OC)cccc23)NC(=O)CN(C)C(=O)[C@H](Cc2ccc(O)cc2)NC(=O)[C@H](Cc2ccc(C(N)=O)cc2)NC(=O)[C@](C)(CO)NC(=O)[C@H](Cc2c[nH]c3c(Cl)cccc23)NC(=O)[C@H](Cc2ccc(OCCN)cc2)NC(=O)[C@H](CC(N)=O)NC(=O)[C@H](CCC(=O)O)N(C)C(=O)[C@H](Cc2c[nH]c3ccccc23)NC(=O)[C@@H]2CC[C@@H](O)CN2C(=O)[C@H](Cc2ccncc2)NC1=O
B9: SEQ ID NO. 182 (peptide)
peptide: cyclo([1S4RAcpc][Nle][4Pal][Pip(4-aza)]W[NMeE]N[4Pal][Trp(7-Cl)][αMeS][Phe(4-COOH)]Y[Sar][Trp(βS-Me,7-OMe)])
SMILES: CCCC[C@@H]1NC(=O)[C@@H]2C=C[C@@H](C2)NC(=O)[C@H]([C@@H](C)c2c[nH]c3c(OC)cccc23)NC(=O)CN(C)C(=O)[C@H](Cc2ccc(O)cc2)NC(=O)[C@H](Cc2ccc(C(=O)O)cc2)NC(=O)[C@](C)(CO)NC(=O)[C@H](Cc2c[nH]c3c(Cl)cccc23)NC(=O)[C@H](Cc2ccncc2)NC(=O)[C@H](CC(N)=O)NC(=O)[C@H](CCC(=O)O)N(C)C(=O)[C@H](Cc2c[nH]c3ccccc23)NC(=O)[C@@H]2CNCCN2C(=O)[C@H](Cc2ccncc2)NC1=O
B10: SEQ ID NO. 177 (peptide)
peptide: {CH2CO}-[Nle][PyrimAla][Bhv][Trp(7-aza)][NMeE]N[4Pal][Trp(7-Cl)][αMeS][Phe(4-COOH)]Y[Sar][Trp(βS-Me,7-OMe)]C-NH2
modifications: thioether N-14; reading uncertain; also: printed as cyclo(ClAc-Nle-PyrimAla-Bhv-Trp7az-NMeE-N-4Pal-Trp7Cl-aMeS-Phe4COOH-Y-Sar-SbMeW7OMe-C)-NH2
B11: SEQ ID NO. 164 (peptide)
peptide: {CH2CO}-[Nle][Phe(4-CONH2)][Val(3-OH)][Trp(7-aza)][NMeE]N[4Pal][Trp(7-Cl)][αMeS][Phe(4-COOH)]Y[Sar][Trp(βS-Me,7-OMe)]C-NH2
modifications: thioether N-14
SMILES: CCCC[C@@H]1NC(=O)CSC[C@@H](C(N)=O)NC(=O)[C@H]([C@@H](C)c2c[nH]c3c(OC)cccc23)NC(=O)CN(C)C(=O)[C@H](Cc2ccc(O)cc2)NC(=O)[C@H](Cc2ccc(C(=O)O)cc2)NC(=O)[C@](C)(CO)NC(=O)[C@H](Cc2c[nH]c3c(Cl)cccc23)NC(=O)[C@H](Cc2ccncc2)NC(=O)[C@H](CC(N)=O)NC(=O)[C@H](CCC(=O)O)N(C)C(=O)[C@H](Cc2c[nH]c3ncccc23)NC(=O)[C@H](C(C)(C)O)NC(=O)[C@H](Cc2ccc(C(N)=O)cc2)NC1=O
B12: SEQ ID NO. 175 (peptide)
peptide: cyclo([bhcLeu][Nle][4Pal][Pip(4-aza)]W[NMeE]N[4Pal][Trp(7-Cl)][αMeS][Phe(4-COOH)][Tyr(2-F)][Sar][Trp(βS-Me,7-OMe)])
SMILES: CCCC[C@@H]1NC(=O)[C@@H]2CC[C@@H](C2)NC(=O)[C@H]([C@@H](C)c2c[nH]c3c(OC)cccc23)NC(=O)CN(C)C(=O)[C@H](Cc2ccc(O)cc2F)NC(=O)[C@H](Cc2ccc(C(=O)O)cc2)NC(=O)[C@](C)(CO)NC(=O)[C@H](Cc2c[nH]c3c(Cl)cccc23)NC(=O)[C@H](Cc2ccncc2)NC(=O)[C@H](CC(N)=O)NC(=O)[C@H](CCC(=O)O)N(C)C(=O)[C@H](Cc2c[nH]c3ccccc23)NC(=O)[C@@H]2CNCCN2C(=O)[C@H](Cc2ccncc2)NC1=O

Numbered stars: 1 amine (or outer) side, 2 acyl side, 3 side chain; on linkers, the order of the positions; unused ones are H or OH. Bridge positions count the residues as written; N and C are the ends. Square brackets hold non-standard residues; d marks the D form. 1S4RAcpc = (1S,4R)-4-Aminocyclopent-2-ene-1-carboxylic acid, O=C([C@@H]1C=C[C@H](N[*:1])C1)[*:2]; bhcLeu = (1R,3S)-3-aminocyclopentane-1-carboxylic acid, O=C([C@@H]1CC[C@H](N[*:1])C1)[*:2]; dPro4cPr = (R)-5-Azaspiro[2.4]heptane-6-carboxylic acid, O=C([C@H]1CC2(CC2)CN1[*:1])[*:2]; FX1 = N5-(Pyridin-3-yl)-L-glutamine, O=C(CC[C@H](N[*:1])C(=O)[*:2])Nc1cccnc1; hSOMe = (S)-2-Amino-4-methoxybutanoic acid, COCC[C@H](N[*:1])C(=O)[*:2]; Trp(βS-Me,7-OMe) = COc1cccc2c([C@H](C)[C@H](N)C(=O)O)c[nH]c12; Phe(4-CH2SO3H) = N[C@@H](Cc1ccc(CS(=O)(=O)O)cc1)C(=O)O; Trp(7-Cl) = N[C@@H](Cc1c[nH]c2c(Cl)cccc12)C(=O)O; Phe(4-CONH2) = NC(=O)c1ccc(C[C@H](N)C(=O)O)cc1; Phe(4-COOH) = N[C@@H](Cc1ccc(C(=O)O)cc1)C(=O)O; Trp(7-aza) = N[C@@H](Cc1c[nH]c2ncccc12)C(=O)O; Pip(5R-OH) = O=C(O)[C@@H]1CC[C@@H](O)CN1; Tyr(2-F) = N[C@@H](Cc1ccc(O)cc1F)C(=O)O; AEF = NCCOc1ccc(C[C@H](N)C(=O)O)cc1; Val(3-OH) = CC(C)(O)[C@H](N)C(=O)O; Pip(4-aza) = O=C(O)[C@@H]1CNCCN1; 4Pal = N[C@@H](Cc1ccncc1)C(=O)O; NMeE = CN[C@@H](CCC(=O)O)C(=O)O; dHyp = O=C(O)[C@H]1C[C@H](O)CN1; NMeS = CN[C@@H](CO)C(=O)O; αMeS = C[C@](N)(CO)C(=O)O; Nle = CCCC[C@H](N)C(=O)O; Pip2c = not defined here; Bhv = not defined here; Sar = CNCC(=O)O

The target in the assay is T1, TNFR1 on THP-1 Lucia NF-κB cells. The assay can be described thus: cell-based or functional assay.
For B1, the “THP-1 IC50” value was 3.3 nM.

For B2, the “THP-1 IC50” value stood at 2.7 nM. For B3, the “THP-1 IC50” value amounted to 1.2 nM. As to B4, the “THP-1 IC50” value was 2.6 nM. Next, B5: 0.9 nM. For B6, the “THP-1 IC50” value came out at 5.3 nM. Next, B7: 0.9 nM. Turning to B8, the “THP-1 IC50” value came out at 0.8 nM. Then B9, with 0.9 nM; and B10, with 3.3 nM. Next, B11: 3.6 nM; B12: 0.9 nM.

Source of the values: patent US20240287138A1 (Merck Sharp & Dohme, published 2024).
